We go through three molecules from patent US20220144921A1 (US Dept. of Health and Human Services, published 2022).

The target of assay [1] is T1, native NS1 on the surface of DENV1-infected Vero cells (Dengue virus serotype 1, UniProt P17763 776-1127).
T1 construct: domain: NS1; also called DENV1 (Cell-Based ELISA)
T1 sequence: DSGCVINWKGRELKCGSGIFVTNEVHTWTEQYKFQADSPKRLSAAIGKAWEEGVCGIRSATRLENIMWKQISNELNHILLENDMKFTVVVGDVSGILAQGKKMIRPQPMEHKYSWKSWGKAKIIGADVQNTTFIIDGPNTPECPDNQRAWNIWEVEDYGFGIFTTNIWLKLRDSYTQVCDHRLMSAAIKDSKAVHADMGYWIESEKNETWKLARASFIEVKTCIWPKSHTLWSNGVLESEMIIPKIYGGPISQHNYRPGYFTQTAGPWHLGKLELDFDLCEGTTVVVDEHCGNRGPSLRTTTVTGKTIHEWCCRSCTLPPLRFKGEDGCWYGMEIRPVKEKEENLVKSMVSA
The assay is described as follows: cell-based ELISA on infected Vero cells. For orientation: An ELISA detects its analyte on a solid surface through an enzyme-linked reagent.

Assay [2] addresses T2, native NS1 on the surface of DENV3-infected Vero cells (Dengue virus serotype 3, UniProt Q6YMS4 774-1125).
T2 construct: domain: NS1; also called DENV3 (Cell-Based ELISA)
T2 sequence: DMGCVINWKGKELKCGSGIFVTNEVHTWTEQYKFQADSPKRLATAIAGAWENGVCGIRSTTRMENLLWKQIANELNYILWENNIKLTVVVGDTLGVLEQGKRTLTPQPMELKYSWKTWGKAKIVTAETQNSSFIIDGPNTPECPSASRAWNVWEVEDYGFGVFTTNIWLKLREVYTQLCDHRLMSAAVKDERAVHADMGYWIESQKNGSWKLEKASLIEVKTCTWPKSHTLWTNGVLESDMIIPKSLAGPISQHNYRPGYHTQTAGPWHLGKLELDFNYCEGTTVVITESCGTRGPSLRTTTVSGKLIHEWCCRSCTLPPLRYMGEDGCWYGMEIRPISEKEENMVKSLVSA
Nature of the assay: cell-based ELISA on infected Vero cells.

The target of assay [3] is T3, native NS1 on the surface of DENV2-infected Vero cells (Dengue virus serotype 2, UniProt P29990 776-1127).
T3 construct: domain: NS1; also called DENV2 (Cell-Based ELISA)
T3 sequence: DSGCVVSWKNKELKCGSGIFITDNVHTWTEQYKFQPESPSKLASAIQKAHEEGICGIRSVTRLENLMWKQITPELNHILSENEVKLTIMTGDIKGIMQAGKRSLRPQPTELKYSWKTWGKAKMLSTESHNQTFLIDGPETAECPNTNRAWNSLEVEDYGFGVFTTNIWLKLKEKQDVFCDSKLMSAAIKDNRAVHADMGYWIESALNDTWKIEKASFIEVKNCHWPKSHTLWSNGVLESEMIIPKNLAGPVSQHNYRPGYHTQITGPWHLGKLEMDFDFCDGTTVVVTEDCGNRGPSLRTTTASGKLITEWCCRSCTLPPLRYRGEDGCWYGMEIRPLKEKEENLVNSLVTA
The assay is described as follows: cell-based ELISA on infected Vero cells.

Assay [4] deals with T4, recombinant non-structural protein 1 of DENV3 (Dengue virus serotype 3, UniProt Q6YMS4 774-1125).
T4 construct: domain: NS1; also called rNS1 DENV3
T4 sequence: T2 sequence
Nature of the assay: iELISA on recombinant protein.

The target in assay [5] is T5, recombinant non-structural protein 1 of DENV1 (Dengue virus serotype 1, UniProt P17763 776-1127).
T5 construct: domain: NS1; also called rNS DENV1; rNS1 DENV1
T5 sequence: T1 sequence
Nature of the assay: iELISA on recombinant protein.

Assay [6] deals with T6, recombinant non-structural protein 1 of DENV2 (Dengue virus serotype 2, UniProt P29990 776-1127).
T6 construct: domain: NS1; also called rNS1 DENV2
T6 sequence: T3 sequence
The assay is described as follows: iELISA on recombinant protein.

Assay [7] has as its target T7, recombinant non-structural protein 1 of Yellow Fever Virus (Yellow Fever Virus, UniProt P03314 779-1130).
T7 construct: domain: NS1; also called rNS1 YFV
The assay is described as follows: iELISA on recombinant protein.

In assay [8] the target is T8, recombinant non-structural protein 1 of West Nile Virus (West Nile Virus, UniProt P06935 788-1139).
T8 construct: domain: NS1; also called rNS1 WNV
T8 sequence: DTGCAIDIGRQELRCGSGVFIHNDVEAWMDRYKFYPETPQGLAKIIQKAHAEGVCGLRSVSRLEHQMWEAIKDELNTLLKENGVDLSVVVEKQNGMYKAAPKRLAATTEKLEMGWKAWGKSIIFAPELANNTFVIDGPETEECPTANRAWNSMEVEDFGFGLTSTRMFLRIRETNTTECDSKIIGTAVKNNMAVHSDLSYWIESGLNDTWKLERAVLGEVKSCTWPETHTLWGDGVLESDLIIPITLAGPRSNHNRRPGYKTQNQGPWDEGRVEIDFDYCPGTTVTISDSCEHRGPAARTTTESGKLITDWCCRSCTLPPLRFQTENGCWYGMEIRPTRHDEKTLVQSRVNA
Nature of the assay: iELISA on recombinant protein.

Assay [9] has as its target T4, recombinant non-structural protein 1 of …. Nature of the assay: iELISA, FIG. 4 legend.
Assay [10] has as its target T5, recombinant non-structural protein 1 of …. Nature of the assay: iELISA, FIG. 4 legend.
Assay [11] addresses T6, recombinant non-structural protein 1 of …. The assay is described as follows: iELISA, FIG. 4 legend.
For assay [12], the target named is T7, recombinant non-structural protein 1 of …. The assay is described as follows: iELISA, FIG. 4 legend.
The target of assay [13] is T9, recombinant SUMO protein (small-ubiquitin-like modifier).
T9 construct: also called SUMO* tag
The assay is described as follows: iELISA, FIG. 4 legend.

Assay [14] addresses T8, recombinant non-structural protein 1 of …. Nature of the assay: iELISA, FIG. 4 legend.
For assay [15], the target named is T10, native NS1 in culture supernatant of DENV3-infected Vero cells (Dengue virus serotype 3, UniProt Q6YMS4 774-1125).
T10 construct: domain: NS1
T10 sequence: T2 sequence
Nature of the assay: iELISA on Vero cell culture supernatant.

For assay [16], the target named is T11, native NS1 in culture supernatant of DENV1-infected Vero cells (Dengue virus serotype 1, UniProt P17763 776-1127).
T11 construct: domain: NS1
T11 sequence: T1 sequence
Nature of the assay: iELISA on Vero cell culture supernatant.

The target of assay [17] is T12, native NS1 in culture supernatant of DENV2-infected Vero cells (Dengue virus serotype 2, UniProt P29990 776-1127).
T12 construct: domain: NS1
T12 sequence: T3 sequence
The assay is described as follows: iELISA on Vero cell culture supernatant.

B1: MAb 8A6F2 (antibody, V domains shown)
VH: DVQLQESGPDLVKPSQSLSLTCTVTGYSITSGYNWHWIRQFPGNKLEWMGYIHYSGGTNYNPSLKSRISITRDTSKNQFFLQLNSVTTEDTATYYCARRTGTVPFAYWGQGTLVTVSA
VL: EIVLTQSPALMAASPGEKVTITCSVSSSISSSNLHWYQQKSETSPKPWIYGTSNLASGVPVRFSGSGSGTSYSLTISSMEAEDAATYYCQQWSSYPLTFGGGTKLEIK
In the case of B1, the binding result in [1], in assay [2], in [3], in assay [4], in assay [5] and in assay [6] was “no binding” throughout. Also, the binding result in [7], in [8], in assay [15], in assay [16] and in assay [17] was “no binding” each time. The “OD value (450 nm)” value in assay [9], in assay [10], in assay [11], in assay [12], in assay [13] and in assay [14] was below 0 OD throughout.

B2: MAb 6D4B10 (antibody, V domains shown)
VH: EVQLQQSGPELVKPGASVKMSCKASGYTFTSYVMHWVKQKPGQGLEWIGYLNPYNDDTKYNEKFKGKATLTSDKSSSTAYMELSSLTSEDSAVYYCAYGPPYALDYWGQGTSVTVSS
VL: QIVLTQSPAIMTASLGERVTMTCTASSSVSSSYLHWYQQKPGSSPKLWIYSTSNLASGVPARFSGSGSGTSYSLTISSMEAEDAATYYCHQYHRSPYTFGGGTKLEIK
Regarding B2, the binding result in assay [1], in assay [2], in assay [3], in [4], in assay [5] and in assay [6] was “no binding” throughout. For the same molecule, the binding result in assay [7], in [8], in assay [15], in [16] and in [17] was “no binding” each time. Further, the “OD value (450 nm)” value in assay [9], in assay [10], in assay [11], in [12], in assay [13] and in [14] was below 0 OD each time.

B3: MAb 3H7A9 (antibody, V domains shown)
VH: EVQLQQSGAELVKPGASVKLSCTASGFNIKDTYMHWVKQRPEQGLEWIGRIDPANGNTQYGPKFQGKATITADTSSNTAYLQLSSLTSEDTAVYYCARGGIFYYYGSSYSYAMDYWGQGTSVTVSS
VL: DIQMTQTTSSLSASLGDRVTISCRASQDISNYLNWYQQKPDGTVTLLIYYTSRLHSGVPSRFSGSGSGTDYSLTISNLEQEDIATYFCQQGNTLPRTFGGGTKLEIK
On to B3, for which the binding result in assay [1], in assay [2], in [3], in [4], in [5] and in assay [6] was “no binding” each time. For the same molecule, the binding result in assay [7], in assay [8], in [15], in assay [16] and in assay [17] was “no binding” each time. In addition, the “OD value (450 nm)” value in [9], in assay [10], in assay [11], in assay [12], in assay [13] and in assay [14] was below 0 OD in each case.
